Consider 71 molecules from patent US20250011363A1, “OPTIMIZED SHORTENED PEPTIDE THAT BINDS TO ACETYLCHOLINE RECEPTOR, AND USE THEREOF” (SKINMED CO., LTD., priority 2021, published 2025).

In assay [1] the target is acetylcholine receptor. Kind of assay: SPR, AchR immobilized on CM5 chip, peptide at 10 uM.
Assay [2] deals with acetylcholine receptor. Kind of assay: SPR, AchR immobilised on CM5 chip, peptide 10 uM. A general note: In SPR one partner is held on a chip, and binding of the other changes the refractive index at the surface.

B1: 6mer-1-829 (peptide)
peptide: RRIHKK
B1 registered a Binding affinity (RU) in the assay with acetylcholine receptor [1] of 25 RU.

B2: 6mer-1-828 (peptide)
peptide: RRPNMK
As for B2, the Binding affinity (RU) in the assay with acetylcholine receptor [1] came to 26 RU.

B3: 6mer-2-780 (peptide)
peptide: KITIRK
The molecule B3 gave a Binding affinity (RU) with acetylcholine receptor [2] of 31 RU.

B4: 6mer-1-826 (peptide)
peptide: KKAHMR
In the assay with acetylcholine receptor [1], B4 returned a Binding affinity (RU) of 31 RU.

B5: 6mer-1-839 (peptide)
peptide: KRNWAK
In turn, B5 returned a Binding affinity (RU) with acetylcholine receptor [1] of 29 RU.

B6: 6mer-2-782 (peptide)
peptide: KPWPKR
With B6, the Binding affinity (RU) with acetylcholine receptor [2] amounted to 18 RU.

B7: 6mer-2-795 (peptide)
peptide: RTHNKR
In the assay with acetylcholine receptor [2], B7 gave a Binding affinity (RU) of 16 RU.

B8: 6mer-2-781 (peptide)
peptide: KTMNRK
On to B8, for which the Binding affinity (RU) with acetylcholine receptor [2] worked out at 28 RU.

B9: 6mer-2-797 (peptide)
peptide: RHCIKR
The molecule B9 gave a Binding affinity (RU) with acetylcholine receptor [2] of 19 RU.

B10: 6mer-1-819 (peptide)
peptide: KRMHAK
In turn, B10 gave a Binding affinity (RU) with acetylcholine receptor [1] of 17 RU.

B11: 6mer-2-783 (peptide)
peptide: RDMVRK
B11 had a Binding affinity (RU) with acetylcholine receptor [2] of 32 RU.

B12: 6mer-1-815 (peptide)
peptide: RRFEMR
In the case of B12, the Binding affinity (RU) with acetylcholine receptor [1] was 23 RU.

B13: 6mer-1-804 (peptide)
peptide: KRDPFR
B13 displayed a Binding affinity (RU) with acetylcholine receptor [1] of 31 RU.

B14: 6mer-1-802 (peptide)
peptide: RKYHGR
B14 showed a Binding affinity (RU) with acetylcholine receptor [1] of 32 RU.

B15: 6mer-2-778 (peptide)
peptide: RNAPKK
In the assay with acetylcholine receptor [2], B15 had a Binding affinity (RU) of 21 RU.

B16: 6mer-1-830 (peptide)
peptide: KKTTMK
B16 gave a Binding affinity (RU) with acetylcholine receptor [1] of 33 RU.

B17: 6mer-1-805 (peptide)
peptide: KRDTMK
The molecule B17 returned a Binding affinity (RU) in the assay with acetylcholine receptor [1] of 24 RU.

B18: 6mer-2-785 (peptide)
peptide: RHCHRR
For B18, the Binding affinity (RU) with acetylcholine receptor [2] amounted to 31 RU.

B19: 6mer-1-834 (peptide)
peptide: KRNTIR
Take B19: the Binding affinity (RU) with acetylcholine receptor [1] was 17 RU.

B20: 6mer-1-837 (peptide)
peptide: KRDHAK
In the assay with acetylcholine receptor [1], B20 yielded a Binding affinity (RU) of 19 RU.

B21: 6mer-1-814 (peptide)
peptide: KKCNAK
B21 yielded a Binding affinity (RU) with acetylcholine receptor [1] of 15 RU.

B22: 6mer-2-787 (peptide)
peptide: RIWHKK
As for B22, the Binding affinity (RU) in the assay with acetylcholine receptor [2] is 19 RU.

B23: 6mer-1-825 (peptide)
peptide: RKEKWK
In the assay with acetylcholine receptor [1], B23 yielded a Binding affinity (RU) of 30 RU.

B24: 6mer-1-840 (peptide)
peptide: RKICNK
The molecule B24 showed a Binding affinity (RU) in the assay with acetylcholine receptor [1] of 12 RU.

B25: 6mer-1-812 (peptide)
peptide: RKDHMK
In the assay with acetylcholine receptor [1], B25 yielded a Binding affinity (RU) of 26 RU.

B26: 6mer-1-843 (peptide)
peptide: KKKTIK
Regarding B26, the Binding affinity (RU) in the assay with acetylcholine receptor [1] was determined as 28 RU.

B27: 6mer-1-807 (peptide)
peptide: RRDKNR
In the assay with acetylcholine receptor [1], B27 displayed a Binding affinity (RU) of 13 RU.

B28: 6mer-1-800 (peptide)
peptide: RREHIR
B28 had a Binding affinity (RU) with acetylcholine receptor [1] of 15 RU.

B29: 6mer-1-823 (peptide)
peptide: KRHTGK
Molecule B29 had a Binding affinity (RU) with acetylcholine receptor [1] of 12 RU.

B30: 6mer-2-774 (peptide)
peptide: KFDARK
With B30, the Binding affinity (RU) with acetylcholine receptor [2] came out at 17 RU.

B31: 6mer-1-844 (peptide)
peptide: KKPMNR
Consider B31, for which the Binding affinity (RU) in the assay with acetylcholine receptor [1] was determined as 28 RU.

B32: 6mer-1-799 (peptide)
peptide: RRKKKR
In the assay with acetylcholine receptor [1], B32 returned a Binding affinity (RU) of 30 RU.

B33: 6mer-1-842 (peptide)
peptide: RRFANK
Molecule B33 had a Binding affinity (RU) with acetylcholine receptor [1] of 11 RU.

B34: 6mer-1-806 (peptide)
peptide: RKKTIR
As to B34, the Binding affinity (RU) with acetylcholine receptor [1] amounted to 12 RU.

B35: 6mer-1-801 (peptide)
peptide: KKCAVK
Consider B35, for which, in the assay with acetylcholine receptor [1], the Binding affinity (RU) turned out to be 18 RU.

B36: 6mer-1-831 (peptide)
peptide: KKNPWK
For the molecule B36, the Binding affinity (RU) with acetylcholine receptor [1] was 15 RU.

B37: 6mer-2-793 (peptide)
peptide: RMHKKR
B37: the Binding affinity (RU) with acetylcholine receptor [2] amounted to 29 RU.

B38: 6mer-1-833 (peptide)
peptide: RRYKNR
In turn, B38 came in with a Binding affinity (RU) in the assay with acetylcholine receptor [1] of 19 RU.

B39: 6mer-2-775 (peptide)
peptide: KMSMKK
As for B39, the Binding affinity (RU) with acetylcholine receptor [2] worked out at 26 RU.

B40: 6mer-1-813 (peptide)
peptide: RREDFK
Molecule B40 gave a Binding affinity (RU) with acetylcholine receptor [1] of 15 RU.

B41: 6mer-2-796 (peptide)
peptide: RMMARR
In the assay with acetylcholine receptor [2], B41 yielded a Binding affinity (RU) of 32 RU.

B42: 6mer-1-811 (peptide)
peptide: KRHCHK
Turning to B42, the Binding affinity (RU) in the assay with acetylcholine receptor [1] is 16 RU.

B43: 6mer-2-791 (peptide)
peptide: KNMNRK
B43 returned a Binding affinity (RU) with acetylcholine receptor [2] of 27 RU.

B44: 6mer-1-836 (peptide)
peptide: RRCMIK
B44 yielded a Binding affinity (RU) with acetylcholine receptor [1] of 22 RU.

B45: 6mer-1-827 (peptide)
peptide: RKKKFR
In the assay with acetylcholine receptor [1], B45 came in with a Binding affinity (RU) of 30 RU.

B46: 6mer-1-817 (peptide)
peptide: RRIMKR
As for B46, in the assay with acetylcholine receptor [1], the Binding affinity (RU) worked out at 16 RU.

B47: 6mer-2-798 (peptide)
peptide: RDTPKK
B47 showed a Binding affinity (RU) with acetylcholine receptor [2] of 17 RU.

B48: 6mer-1-820 (peptide)
peptide: KRNDGK
B48 registered a Binding affinity (RU) with acetylcholine receptor [1] of 12 RU.

B49: 6mer-1-841 (peptide)
peptide: KKDAPR
With B49, the Binding affinity (RU) in the assay with acetylcholine receptor [1] came out at 30 RU.

B50: 6mer-1-816 (peptide)
peptide: RKIDFK
In the assay with acetylcholine receptor [1], B50 yielded a Binding affinity (RU) of 14 RU.

B51: 6mer-1-803 (peptide)
peptide: RKMKHK
In the assay with acetylcholine receptor [1], B51 came in with a Binding affinity (RU) of 31 RU.

B52: 6mer-2-790 (peptide)
peptide: RCAGRR
In the case of B52, the Binding affinity (RU) with acetylcholine receptor [2] amounted to 23 RU.

B53: 6mer-1-821 (peptide)
peptide: RRTTNR
Regarding B53, in the assay with acetylcholine receptor [1], the Binding affinity (RU) was 22 RU.

B54: 6mer-2-788 (peptide)
peptide: KKEKKK
For B54, in the assay with acetylcholine receptor [2], the Binding affinity (RU) stood at 30 RU.

B55: 6mer-1-832 (peptide)
peptide: RKYWGK
The molecule B55 gave a Binding affinity (RU) with acetylcholine receptor [1] of 12 RU.

B56: 6mer-2-784 (peptide)
peptide: KAEWRK
As for B56, the Binding affinity (RU) with acetylcholine receptor [2] stood at 26 RU.

B57: 6mer-1-835 (peptide)
peptide: KRTADK
In turn, B57 displayed a Binding affinity (RU) in the assay with acetylcholine receptor [1] of 26 RU.

B58: 6mer-2-779 (peptide)
peptide: KAAHRR
In the assay with acetylcholine receptor [2], B58 came in with a Binding affinity (RU) of 13 RU.

B59: 6mer-2-794 (peptide)
peptide: KAEMRR
On to B59, for which, in the assay with acetylcholine receptor [2], the Binding affinity (RU) turned out to be 19 RU.

B60: 6mer-1-822 (peptide)
peptide: KREPIK
B60 gave a Binding affinity (RU) with acetylcholine receptor [1] of 17 RU.

B61: 6mer-2-792 (peptide)
peptide: RAEDKR
B61: in the assay with acetylcholine receptor [2], the Binding affinity (RU) turned out to be 13 RU.

B62: 6mer-1-818 (peptide)
peptide: RKIKAR
In the assay with acetylcholine receptor [1], B62 yielded a Binding affinity (RU) of 14 RU.

B63: 6mer-1-810 (peptide)
peptide: RKCNAR
In turn, B63 had a Binding affinity (RU) with acetylcholine receptor [1] of 12 RU.

B64: 6mer-2-776 (peptide)
peptide: RFPWRK
Consider B64, for which, in the assay with acetylcholine receptor [2], the Binding affinity (RU) was determined as 12 RU.

B65: 6mer-2-777 (peptide)
peptide: KNDVRR
Take B65: the Binding affinity (RU) in the assay with acetylcholine receptor [2] was determined as 31 RU.

B66: 6mer-2-786 (peptide)
peptide: RMEMRK
Molecule B66 yielded a Binding affinity (RU) with acetylcholine receptor [2] of 30 RU.

B67: 6mer-1-809 (peptide)
peptide: KKKSNR
In turn, B67 returned a Binding affinity (RU) with acetylcholine receptor [1] of 12 RU.

B68: 6mer-1-838 (peptide)
peptide: KRNTWK
B68 returned a Binding affinity (RU) with acetylcholine receptor [1] of 17 RU.

B69: 6mer-1-824 (peptide)
peptide: KKMNIK
For B69, in the assay with acetylcholine receptor [1], the Binding affinity (RU) stood at 12 RU.

B70: 6mer-2-789 (peptide)
peptide: KNENRK
As to B70, the Binding affinity (RU) with acetylcholine receptor [2] amounted to 24 RU.

B71: 6mer-1-808 (peptide)
peptide: RRFEKK
B71 showed a Binding affinity (RU) with acetylcholine receptor [1] of 24 RU.
